According to the nanobody polyreactivity screen of Harvey et al. (2022):

Assay: yeast display, Sf9 membrane polyspecificity reagent, FACS + sequencing; frameworks hold sequencing errors
Method in brief: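 Sorting gates, low and high (top ~1%), were placed on anti-HA fluorescence to track expression and on streptavidin fluorescence to track reagent binding. A clone's polyreactivity label is taken from the gate it came out of. The reagent was 10% biotinylated, detergent-solubilized Sf9 membrane, applied for 1 hour at 4 °C to galactose-induced yeast display cells.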

Sequence	polyreactivity (PSR sort gate)
QVQLVESCGGLVQAGGSLRLSCAGSGITIYSYAMGWYRQAPGKERELVAAITLTGGTTYYADSVKGRFTISRDNAKNTVYLQMNSLKPEDTAVYYCNADYGGGVDGTYKYYSEYDYWGQGTQVTVSS	low polyreactivity
QVQLVESGGGLVQAGGSHRLSCAASGGILETNAMGWYRQAPGKERELVAAIDFSAGSTYYADSVKGRFTISRDNAKNTVYLQMNSLKPEDTAVYYCAAESQGPKDDYLWGWHIYYYWGQGSQVTVSS	low polyreactivity
QVQLVESGGGIVQAGGSLRLSCAASGSTLQYNAMGWYRQAPGKERELVAAITRISGSTYYADSVKGRFTISRDNAKNTVYLQMNSLKPEHTAVYYCAAVSYYYSGYDYWGQGTEVTVSS	high polyreactivity
QVQLVESGGGLVQAGCSLRLRSAASGSIFSGYAMGWYRQAPWKERELDAVISSTGDSTYYADSVKGRFTISRDYAKNTVYLQMNSLKPEDTAVYYCAAYHGPWKWTTRYGYWGQGTQVTVSS	low polyreactivity
QVQLVESGGGLVQAGGSLRLSCAASGFTVYGYTMGWYREAPGKERELVAAITSGDSTYYADSVKGRVTISRDIAQNTDYLQMHTLKPEETAVYYCATDWDVEYAWTEYYYWGQGTQVTVSS	high polyreactivity
QVQLVESGGRLVQAGGILRLSCAASGRIFNRYAMGWSRQAPGKEREFVARITGSGGRTYYADSVKGRFTISRDNAKNTVYLQMNSLKPEDTAVYYCARDRGYQSGYDFWGQGSQVTVSS	high polyreactivity
QVQLVESGGGLVLAGGSLRLSCAASGSILTFYAMGWYRQAPGKERELVARITLIVARTNYADSVKARFTISRDNAKNTVYLQMNSLKPEDTAVYYCAKRDGDSGIGFGYWGQGTQVTVSS	low polyreactivity
QVQLVESWGGLVQAGGSLRLSCAASGFTFRAYAMGWYRQAPGKERELVAAISTGGGSTYYADSVKGRFTISRDNAKNTVYLQMKSLKPEDTAVYYCNALPQRRYYYWGQGTQVTVSS	high polyreactivity
HVQLVESGGGLVQAGGSLRLSCAASGRIFPGYAMGWYRQAPGKERELVAGISNDASTNYADSVKGRFTISRDNAKNTVYLQMNSLKPEDTAVYYCAAEIYYLSVPRYDYWGQGTQVTVSS	low polyreactivity
QVQLVESGGGLVQAGGSLRLSCAASGFIFRLYAMGLYRQAPGKERELVAAITTSGDSTYYADSVKGRFTISRDNSKNTFYLQMNCLKPEDTAVYYCAARYYYPPKRGYWGQGSQVTVSS	high polyreactivity
QVQLVESGGGLVQAGGSLRLSCAASGLIFRYYAMGWYRQAPGKERELVAAISKSGGRTYYADSVKGRFTISRDNAKNTVYLQMNSLKPEDTAVYYCATGVRGYVGWSSALYYEYDYWGQGTQVTVSS	high polyreactivity
QVQLVESGGGLVQAGGSLRLSCAASGSTFYGYAMGWYRQAPGKERELVAAITRSGGSTYYADSVKGRFTISRDNAKNTVYLQMNSLKPEDTEVYYCNKYGYKGGVGYDYWGQGTQVTVSS	high polyreactivity
QVQLVESGGGLVQAGGSLRLSCAASGFTFLPAYAMGWYRQAPGKERELVAAITRGGSTYYADSVKGRFTISRDNAKNTVYLQMNSLKPEDSAVYYCNADQKFGFYRSVGDDYWGQGTQVTVSS	low polyreactivity
QVQLVESGGGLVPAGGSLRLSCAASGRTFRFNAMGWYRQAPGKERELVAAITKSSGSTDYADSVKGRFTISRDNAKNTVYLQMNSLKPEDSAVYYCAVRIFVPYYSDWSFPTQYNYWGQGTQLTVSS	high polyreactivity
QVQLVESGGGLVQAGGSLRLSCAASGFISSENAMGWYRQAPGKERELVAAISSGGSTNYADSVKGRFTISRDNAKNTVYLQMNSRKPEDTAVYYCAATLPGWYNEDDSWGQGTQVTVSS	low polyreactivity
QVQLVESGGGLVQAGGSLRLSCAASGSIFRSYAKGWYRQAPGKERELVAAISSSGGRKYYADSVKGRFTISRDNAKNTVYLQMNSLKPEDTAVYYCAAYGAGGYKYDYWGQGTQVTVSS	low polyreactivity
QVQLVESGGGLVQAGGRLRLSCAASGRIFNKYVMGWYRQAPGKERELVAAISGRGGSTYYADSVKGRFTISRDYEKNTVYLQMNSLKPEDSAVYYCAAEYQGRRMYYWGQGTQVTVSS	high polyreactivity
QVQLVESGGGLVQAGGSLRLSCAASGLIFARNAMGWYRQSPGKERELVAAITRGGSTYYADSVKGRFTISRDNAKNTVYLQMNSLKPEDTAVYYCNADYAYNSYGYRFYYWGQGTQVTVSS	high polyreactivity
QVQLVESGGGLVQAGGSLRLSCAASGRILKSYAMGWCRHAPGKERELVAAIRSGGSTYYADSVKGRFTISRDNAKNTVYLQMYSLKPEDTAVYYCNRVTRTWKVNYHYWGQGTQVTVSS	high polyreactivity
QVHLVESGGGLVQAGGSLRLSCAASGSTFLPNAMGWYRQAPGKERELVAAITNGGGTNYADSVKGRFTISRDNAKNTVYLQMYSLKPEDTAVYYCNADSTYFGGHDYWGPGTQVTVSS	low polyreactivity
QFQLVESGGGLDQAGGSLRISCAASGSTFSYNAIGWYRQAPGKERELVAAITSRGGSTRYADSVKGRFTISRDNAKNTVYLQMNSLNPEDTAVYYCARPYSYYPYSTVNYWGQGTQVTVSS	high polyreactivity
QVQLVESGGGLVQAGGSLRLSCAASGSIFTTYAMGWSRQAPGKERELVAAITTSGGRTYYADSVKGRFTISRDNAKNTVYLQMNSLKPDDTAVYYCNAVRGGRYGLDYWGQGTQVTVSS	high polyreactivity

Sequence	polyreactivity (PSR sort gate)
QVQLVESGGGLVQGGGSLRLSCAASGSIFTYNAIRSYRQAPGKERELVAAINTSGSTNYADSVKGRFTLSRDNAKNTVYLQMNSVKPEVTAVYYCAAGIVVTGYDYWGHGTQVTVSS	low polyreactivity
QVQLVESGGGLVQAGGSLRLICAASGFTIGPYAMGWSRQAPGKERELVAAITIRGGSTYADSVKGRFTISRDNAKNTVYFQMNSLKTEDTAVSYCATVRALEYNYWGQGTQVTVSS	low polyreactivity
QVQLVESGGGLVQAGGSLRLSCAASGRTFRRYTMGWYRQAPGKEREFVAGITSSAGNTHYADSVKGRFTISRYNAKNTVYLQMNSLKPEDTAVYYCNAVYYHGSSQYYGGTYGRYYWGQGTQVTVSS	high polyreactivity
KYYADSVKGRFTISRDNAKNTVYLQMNSLNPEDTAVYYCNAGYYISFNPYDYWGQGTQVTVSW	low polyreactivity
QVQLVESGGGLVQAGGSLRLSCAASGIILYVNAMGCYRQAPGKEREFVAAISWGGGSTYYADSVKGRFTISRDNAKNTVYLQMNSLKREDTAVYYCAAEFWSGYPTYTYDYWGQGTQVTVSS	low polyreactivity
QVQLVESGGGLVQAGGSLRLSCAASGSTFPYNARGWYRQAPGKETELVAAISSSGGSTYYADSVKGRFTISRDNAKNTVYLQMNSLKPVDTEVYYCNAVLRYSIYPSSSFSYVGYYYWGQGTQVSVSS	high polyreactivity
QVQVVESGGGLVQAGGSLRLSCAASGSIFSWNAMGWYRQAPGKERELVAAISKRGTSTYYADSVKGRFTISRDNAKNTVYLQMNSLKPEDTAVYYCAVSRIVDFGQKMYYWGQGTQVTVSS	high polyreactivity
QVQLVESGGGLVQAGGSLRLSCAASGITSGHNAMGWYRQAPGKERELVADIRTGDSTNYADSVKGRFTISRDNAKNTVYLQMNSLKPEDTAVYYCAADSAYDVTSYGYWGQGTQVTVSS	low polyreactivity
QVQIVESGGGLVQAGGSLRLSCPASGSTFTRYPMGWYSQAPGKERELVAAISYSGSSTYYADSVKGRFTISRDNAKNTVYLEMICLIPEDTAVYYCAAGKQAPAVNYGYYYWGQCTQVTVSS	low polyreactivity
QVQLVESGGGLVQAGGSLRLSCAASGGIFAHYVMGWYRQAPGKERELVAAISASGGSTYYADSVKGRFTISRDNAKNTVYLQMNSLKPEDTAVYYCAAYYLAWYAYRYKTVGSAMDHWGQGTQVTVSS	low polyreactivity
QVQLVESGGGLVQAGGSLRLSCAASGITFDVYAMGWYRQAPGKERELVAAISSVGGTYYADSVKGRFTISRDNAKNTVYLQMNSLKPEDTAVYYCNTDGYVGSIRSGLYIYDYWGQGTQVTVSS	low polyreactivity
PDQLVESGGGLVQAGGSLRLSCAASGFIFTYYAMGWYRQAPGKERELVAAITRRGGSTYYADSVKGRFTISRDNAKNTVYLQMNRLKPEDTAVYYCNKVDQGRYGYWGQGTQVTVSS	high polyreactivity
QVQLLESGGGLVQAGGSLRLSCAASGGIFPAYAMGWYRQAPGKERELFADITNGGSTYYADSVKGRFTISRDNAKNTVYLQMNSLKPEDTAVYYCNAREFWRTRFGCGYPYRRNMDYWGQGTQVTVSS	low polyreactivity
QFQLVESWGGLVPPGGILRLSCAASRSTFRYYPIGRYRQAPGHERELVAVISSSGSRTNYADSVKGRFTISRDTAKNTVYLQLNSLKPEDSAVYYCGAVSSYRYYADYYWGQGTQVTVSS	high polyreactivity
QVQLVESGGGLVQARGTLRLSCAASGFTVFSYAMGWYRQAPGKESELVASISGSSSTYYADSVKGRFTISRDNAKNTVSVQMNSLTPDDTAVYYCAVDYHQAWPSGDYWFEYDYWGQGTQVTVSS	low polyreactivity
QVQLVESGGGLVQAGGSLRLSCAASRSIFRGYAMGWYRQAPVKETELVAAITQRAGSTYYADSVKGRFTISRDNAKNTVYLQMISLKPEDTAVYYCAADFYYAYYWGQGTQVTVSS	low polyreactivity
QVQLVESGGGLVQAGGSLRLSCAASGFIFKSYAMGWYRQAPGQERELVAAISRSGSSTYYADSVKGRFTISRDNAKNTVYLLMNSLKPEDTAVYYCAKKGYRFIHFGYDYWGQGTQVTVSS	high polyreactivity
QVQLVESGGGLVQAGGSLRLICAASGRTFKDYAMGWNRQAPGKERELVADISWSGGDTYYADSVKGRFTISRDNAKNTVYLQMNSLKPEDTAVYYCAADWSWCDGEDYHFEYDYWGQGTQVTVSS	low polyreactivity
QVQLVESGGGLVQAGGSLRLSCAASGIYAYVMGWYRQAPGTERELVAAISGTGGRTYYADSVKGRFTISRDNAKNTVYLQMNSLKPEDTAVYYCAARVKYTRYQSILDYYYWGQGTQVTVSS	high polyreactivity
QVQLVESGGGLVQAGGSLRLSCAASGSIFFLYAMGWYRQAPGKERELVASISRGDSTNYADSVKGRFTISRDNAKNTVYLQMNSLKPEDTAVYYCAAYRLYWPSTARRYDYWGQGTQVTVSS	low polyreactivity
QHQLVESGGGLVQAGASLRLSCAASGRTFFKNAKGWYRQAPGKERELVAGISRTGSTNYADSVKGRFTISSDNAKNTVYLEMNSLKPEDTAVYYCAAGVLGLPLRHRYDYWGQGTQVTVSS	low polyreactivity
